Patent publication US20170334958A1

Biological target: tumor necrosis factor-α (TNF-α) (human) (UniProt P01375)
Test: 35S free protein + biotin-TNF-α in solution, biotin capture membrane, phosphorimaging

tumor necrosis factor-α (TNF-α) (human), sequence (P01375 77-233 limits assumed): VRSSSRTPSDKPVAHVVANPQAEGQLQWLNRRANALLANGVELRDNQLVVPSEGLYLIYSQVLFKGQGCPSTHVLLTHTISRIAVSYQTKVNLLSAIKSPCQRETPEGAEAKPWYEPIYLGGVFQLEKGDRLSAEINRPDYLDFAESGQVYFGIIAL

B1: T14.06 (designed binder)
chain: VSDVPRDLEVVAATPTSLLISWTRTNASTRYYRITYGETGGNSPVQEFTVPNFWWTATISGLKPGVDYTITVYAVTSPDETSAYSEPISINYRT
Kd: 1.4 nM
